Test results reported in patent publication US11597752B2, “Peptides and combination of peptides and scaffolds thereof for use in immunotherapy against colorectal carcinoma (CRC) and other cancers” (priority 2015, dated 2023).

Target: HLA-A*02:01 (Homo sapiens, UniProt P04439, D140Y/D185E/D98H/E176V/E277Q/G131W/G231S/I119V/I121R/I166T/I218V/L300P/L318F/N151K/N90K/P208A/P217A/Q86G/Q94H/R138H/R169H/T345S)
Assay: MHC binding assay (UV-ligand exchange, beta2m ELISA, peptide exchange yield)
Details: binding to HLA-A*02:01, β2m ELISA
Source text: Candidate peptides for T cell based therapies according to the present invention were further tested for their MHC binding capacity (affinity). The individual peptide-MHC complexes were produced by UV-ligand exchange, where a UV-sensitive peptide is cleaved upon UV-irradiation, and exchanged with the peptide of interest as analyzed. Only peptide candidates that can effectively bind and stabilize the peptide-receptive MHC molecules prevent dissociation of the MHC complexes. To determine the yield of the exchange reaction, an ELISA was performed based on the detection of the light chain (β2m) of stabilized MHC complexes. The assay was performed as generally described in Rodenko et al. (Rodenko et al., 2006).
96 well MAXISorp plates (NUNC) were coated over night with 2 ug/ml streptavidin in PBS at room temperature, washed 4× and blocked for 1 h at 37° C. in 2% BSA containing blocking buffer. Refolded HLA-A*02:01/MLA-001 monomers served as standards, covering the range of 15-500 ng/ml. Peptide-MHC monomers of the UV-exchange reaction were diluted 100 fold in blocking buffer. Samples were incubated for 1 h at 37° C., washed four times, incubated with 2 ug/ml HRP conjugated anti-β2m for 1 h at 37° C., washed again and detected with TMB solution that is stopped with […]. Absorption was measured at 450 nm. Candidate peptides that show a high exchange yield (preferably higher than 50%, most preferred higher than 75%) are generally preferred for a generation and production of antibodies or fragments thereof, and/or T cell receptors or fragments thereof, as they show sufficient avidity to the MHC molecules and prevent dissociation of the MHC complexes.

Substance | Peptide exchange (MHC class I binding score, peptide exchange yield)
82 (QLYEEPDTKL; listed as Homo sapiens) [compound 82] | “++” (≥20% = ++)
83 (LTIEDGIFEV; listed as Homo sapiens) [compound 83] | “+++” (≥50 = +++)
84 (SMVEDITGLRL; listed as Homo sapiens) [compound 84] | “+++” (≥50 = +++)
85 (ILHDINSDGVL; listed as Homo sapiens) [compound 85] | “++” (≥20% = ++)
86 (KVFPGKISV; listed as Homo sapiens) [compound 86] | “++” (≥20% = ++)
87 (LLFDAPDLRL; listed as Homo sapiens) [compound 87] | “+++” (≥50 = +++)
88 (KLDIKVETV; listed as Homo sapiens) [compound 88] | “++++” (≥75% = ++++)
89 (SLIEYEFRV; listed as Homo sapiens) [compound 89] | “+++” (≥50 = +++)
90 (GLLKPGLNVVL; listed as Homo sapiens) [compound 90] | “+++” (≥50 = +++)
91 (TVDVATPSV; listed as Homo sapiens) [compound 91] | “+++” (≥50 = +++)
92 (WIDDTSAFV; listed as Homo sapiens) [compound 92] | “+++” (≥50 = +++)
93 (SLQELRLLL; listed as Homo sapiens) [compound 93] | “++++” (≥75% = ++++)
94 (KSMDIVLTV; listed as Homo sapiens) [compound 94] | “+++” (≥50 = +++)
95 (AILDAHIEV; listed as Homo sapiens) [compound 95] | “++++” (≥75% = ++++)
96 (KLYSRLVYV; listed as Homo sapiens) [compound 96] | “++” (≥20% = ++)
97 (ALWWGVVTV; listed as Homo sapiens) [compound 97] | “++” (≥20% = ++)
98 (AMNGKSFSV; listed as Homo sapiens) [compound 98] | “++” (≥20% = ++)
99 (KLLEVDLDTV; listed as Homo sapiens) [compound 99] | “+++” (≥50 = +++)
100 (SLDDFLATA; listed as Homo sapiens) [compound 100] | “+++” (≥50 = +++)
101 (GLSEGHTFQV; listed as Homo sapiens) [compound 101] | “+++” (≥50 = +++)
102 (KILVSLIEV; listed as Homo sapiens) [compound 102] | “+++” (≥50 = +++)

Substance | Peptide exchange (MHC class I binding score, peptide exchange yield)
103 (FLFGYPKRL; listed as Homo sapiens) [compound 103] | “++” (≥20% = ++)
104 (ILLTIKDDTIYL; listed as Homo sapiens) [compound 104] | “+++” (≥50 = +++)
105 (YALDLSTFL; listed as Homo sapiens) [compound 105] | “+++” (≥50 = +++)
106 (SLISEKILL; listed as Homo sapiens) [compound 106] | “+++” (≥50 = +++)
107 (ALLGGGPYML; listed as Homo sapiens) [compound 107] | “+++” (≥50 = +++)
108 (SLAELVPGVGGI; listed as Homo sapiens) [compound 108] | “+++” (≥50 = +++)
109 (ALDGDQMEL; listed as Homo sapiens) [compound 109] | “++” (≥20% = ++)
110 (LLGELPRLLLL; listed as Homo sapiens) [compound 110] | “+++” (≥50 = +++)
112 (KLGQVLIYL; listed as Homo sapiens) [compound 112] | “++” (≥20% = ++)
113 (ILYDLQQNL; listed as Homo sapiens) [compound 113] | “++” (≥20% = ++)
114 (TAVGHALVL; listed as Homo sapiens) [compound 114] | “+” (≥10% = +)
115 (SLFDVSHML; listed as Homo sapiens) [compound 115] | “+++” (≥50 = +++)
116 (LVYQFVHPI; listed as Homo sapiens) [compound 116] | “++” (≥20% = ++)
117 (TLQPVDNSTISL; listed as Homo sapiens) [compound 117] | “++” (≥20% = ++)
118 (LLADLKTMV; listed as Homo sapiens) [compound 118] | “+++” (≥50 = +++)
119 (ILYQTVTGL; listed as Homo sapiens) [compound 119] | “++” (≥20% = ++)
120 (VLYEGVDEV; listed as Homo sapiens) [compound 120] | “++” (≥20% = ++)
121 (SLAPNIISQL; listed as Homo sapiens) [compound 121] | “+++” (≥50 = +++)
122 (SLMGMVLKL; listed as Homo sapiens) [compound 122] | “+++” (≥50 = +++)
125 (KLGDFGLLVEL; listed as Homo sapiens) [compound 125] | “++++” (≥75% = ++++)
126 (TLAKYLMEL; listed as Homo sapiens) [compound 126] | “+++” (≥50 = +++)

Substance | Peptide exchange (MHC class I binding score, peptide exchange yield)
128 (MLDDRAYLV; listed as Homo sapiens) [compound 128] | “++” (≥20% = ++)
129 (VLIDVLKEL; listed as Homo sapiens) [compound 129] | “+++” (≥50 = +++)
130 (GLGGSQLIDTHL; listed as Homo sapiens) [compound 130] | “++” (≥20% = ++)
131 (KLLDVVHPA; listed as Homo sapiens) [compound 131] | “++” (≥20% = ++)
134 (GVAGGSILKGV; listed as Homo sapiens) [compound 134] | “++++” (≥75% = ++++)
135 (KLQEEIPVL; listed as Homo sapiens) [compound 135] | “++” (≥20% = ++)
136 (KLFDIFSQQV; listed as Homo sapiens) [compound 136] | “+++” (≥50 = +++)
137 (QLTEIKPLL; listed as Homo sapiens) [compound 137] | “+++” (≥50 = +++)
138 (KQFEGTVEI; listed as Homo sapiens) [compound 138] | “+++” (≥50 = +++)
139 (VLLNEILEQV; listed as Homo sapiens) [compound 139] | “+++” (≥50 = +++)
140 (LLNEILEQV; listed as Homo sapiens) [compound 140] | “+++” (≥50 = +++)
143 (KLSDVWKEL; listed as Homo sapiens) [compound 143] | “+++” (≥50 = +++)
144 (LLNDRIWLA; listed as Homo sapiens) [compound 144] | “+++” (≥50 = +++)
145 (LLLEVVKQV; listed as Homo sapiens) [compound 145] | “+++” (≥50 = +++)
146 (ALSDETWGL; listed as Homo sapiens) [compound 146] | “++” (≥20% = ++)
147 (TLTELRAFL; listed as Homo sapiens) [compound 147] | “++++” (≥75% = ++++)
148 (RLLENMTEVV; listed as Homo sapiens) [compound 148] | “+++” (≥50 = +++)
149 (YQFDKVGILTL; listed as Homo sapiens) [compound 149] | “+++” (≥50 = +++)
151 (SAQGSDVSLTACKV; listed as Homo sapiens) [compound 151] | “+++” (≥50 = +++)
